From PMC7064531

Biological target: hRpn10^322–366 peptide with Y326 phosphorylated (human) (UniProt P55036)
Experiment: ITC; 25 °C, MicroCal iTC200; E6AP AZUL injected into hRpn10 305-377 (0.0405 mM) or hRpn10 322-366 peptides (0.01 mM) in the cell; 10 mM MOPS pH 6.5, 50 mM NaCl, 5 mM DTT, 10 μM zinc sulfate; one-site fit

Chain of E6AP AZUL (amino-terminal zinc-binding domain of ubiquitin E3a ligase), amino acids 24 to 87 (Q05086 24-87): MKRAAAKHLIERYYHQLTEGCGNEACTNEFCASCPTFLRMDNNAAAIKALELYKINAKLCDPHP

“E6AP AZUL (amino-terminal zinc-binding domain of ubiquitin E3a ligase), amino acids 24 to 87 (from UniProt Q05086 24-87) (domain or fragment)” was tested. Which fold reduction of affinity against unphosphorylated hRpn10 322-366 did it give?
Its fold reduction of affinity against unphosphorylated hRpn10 322-366 is 10 fold.
